# Source: patent publication US8491891B2, “Human beta-glucuronidase mutants with elevated enzymatic activity under physiological conditions and method for identifying such” (Academia Sinica, priority 2008, dated 2013)
# B1: E1-Y: human β-glucuronidase single amino acid mutant T545Y (protein, UniProt P08236 23-651, looked up, variant T545Y)
# Beta-glucuronidase: LQGGMLYPQESPSRECKELDGLWSFRADFSDNRRRGFEEQWYRRPLWESGPTVDMPVPSSFNDISQDWRLRHFVGWVWYEREVILPERWTQDLRTRVVLRIGSAHSYAIVWVNGVDTLEHEGGYLPFEADISNLVQVGPLPSRLRITIAINNTLTPTTLPPGTIQYLTDTSKYPKGYFVQNTYFDFFNYAGLQRSVLLYTTPTTYIDDITVTTSVEQDSGLVNYQISVKGSNLFKLEVRLLDAENKVVANGTGTQGQLKVPGVSLWWPYLMHERPAYLYSLEVQLTAQTSLGPVSDFYTLPVGIRTVAVTKSQFLINGKPFYFHGVNKHEDADIRGKGFDWPLLVKDFNLLRWLGANAFRTSHYPYAEEVMQMCDRYGIVVIDECPGVGLALPQFFNNVSLHHHMQVMEEVVRRDKNHPAVVMWSVANEPASHLESAGYYLKMVIAHTKSLDPSRPVTFVSNSNYAADKGAPYVDVICLNSYYSWYHDYGHLELIQLQLATQFENWYKKYQKPIIQSEYGAEYIAGFHQDPPLMFTEEYQKSLLEQYHLGLDQKRRKYVVGELIWNFADFMTEQSPTRVLGNKKGIFTRQRQPKSAAFLLRERYWKIANETRYPHSVAKSQCLENSLFT
# Test: Enzymatic activity of purified position-545 single mutants at pH 7.0
# Type: biochemical
# Details: purified enzyme
# Text: DNA plasmids were extracted from 12 individual cell clones and subjected to DNA sequencing to examine mutations in the genes encoding human β-glucuronidase variants. All human β-glucuronidase variants being examined had mutations at position 545 (50% T→A and 50% T→S). To determine the effect of amino acid substitutions at position 545 on enzyme activity, the single amino acid mutants T545A (E1-A), T545G (E1-G), T545S (E1-S) and T545Y (E1-Y) were generated and purified from the culture medium of stably transfected fibroblasts. […] Thus, the single amino acid substitution at position 545 affected human β-glucuronidase activity at neutral pH.
molecule,measurement,value
B1,Enzymatic activity relative to wild-type human β-glucuronidase,almost inactive
